Experimental data: article PMC6003625 (Journal of molecular biology, 2018)

Biological target: Nup159-Dbp5-Mg2+mantADP complex (S. cerevisiae | , UniProt P20449 1-482; P40477 1-1460)
Assay: stopped-flow kinetics of mantADP dissociation

Chain of Nup159-Dbp5-Mg2+mantADP complex (P20449 whole entry, chain 1 of 2): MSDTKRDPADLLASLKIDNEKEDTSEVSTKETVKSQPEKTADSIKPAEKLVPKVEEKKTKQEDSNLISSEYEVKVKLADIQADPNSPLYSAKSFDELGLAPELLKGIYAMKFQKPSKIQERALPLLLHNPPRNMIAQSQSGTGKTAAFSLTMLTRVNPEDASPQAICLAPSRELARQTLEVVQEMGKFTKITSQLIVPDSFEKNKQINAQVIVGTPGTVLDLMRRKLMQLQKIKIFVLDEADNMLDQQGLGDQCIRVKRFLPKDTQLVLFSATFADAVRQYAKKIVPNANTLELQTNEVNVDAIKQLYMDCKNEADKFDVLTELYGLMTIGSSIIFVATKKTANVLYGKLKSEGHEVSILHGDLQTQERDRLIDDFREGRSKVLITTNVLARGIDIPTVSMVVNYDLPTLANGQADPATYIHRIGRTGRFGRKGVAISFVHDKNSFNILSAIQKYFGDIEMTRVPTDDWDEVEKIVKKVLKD
Chain of Nup159-Dbp5-Mg2+mantADP complex (P40477 whole entry, chain 2 of 2): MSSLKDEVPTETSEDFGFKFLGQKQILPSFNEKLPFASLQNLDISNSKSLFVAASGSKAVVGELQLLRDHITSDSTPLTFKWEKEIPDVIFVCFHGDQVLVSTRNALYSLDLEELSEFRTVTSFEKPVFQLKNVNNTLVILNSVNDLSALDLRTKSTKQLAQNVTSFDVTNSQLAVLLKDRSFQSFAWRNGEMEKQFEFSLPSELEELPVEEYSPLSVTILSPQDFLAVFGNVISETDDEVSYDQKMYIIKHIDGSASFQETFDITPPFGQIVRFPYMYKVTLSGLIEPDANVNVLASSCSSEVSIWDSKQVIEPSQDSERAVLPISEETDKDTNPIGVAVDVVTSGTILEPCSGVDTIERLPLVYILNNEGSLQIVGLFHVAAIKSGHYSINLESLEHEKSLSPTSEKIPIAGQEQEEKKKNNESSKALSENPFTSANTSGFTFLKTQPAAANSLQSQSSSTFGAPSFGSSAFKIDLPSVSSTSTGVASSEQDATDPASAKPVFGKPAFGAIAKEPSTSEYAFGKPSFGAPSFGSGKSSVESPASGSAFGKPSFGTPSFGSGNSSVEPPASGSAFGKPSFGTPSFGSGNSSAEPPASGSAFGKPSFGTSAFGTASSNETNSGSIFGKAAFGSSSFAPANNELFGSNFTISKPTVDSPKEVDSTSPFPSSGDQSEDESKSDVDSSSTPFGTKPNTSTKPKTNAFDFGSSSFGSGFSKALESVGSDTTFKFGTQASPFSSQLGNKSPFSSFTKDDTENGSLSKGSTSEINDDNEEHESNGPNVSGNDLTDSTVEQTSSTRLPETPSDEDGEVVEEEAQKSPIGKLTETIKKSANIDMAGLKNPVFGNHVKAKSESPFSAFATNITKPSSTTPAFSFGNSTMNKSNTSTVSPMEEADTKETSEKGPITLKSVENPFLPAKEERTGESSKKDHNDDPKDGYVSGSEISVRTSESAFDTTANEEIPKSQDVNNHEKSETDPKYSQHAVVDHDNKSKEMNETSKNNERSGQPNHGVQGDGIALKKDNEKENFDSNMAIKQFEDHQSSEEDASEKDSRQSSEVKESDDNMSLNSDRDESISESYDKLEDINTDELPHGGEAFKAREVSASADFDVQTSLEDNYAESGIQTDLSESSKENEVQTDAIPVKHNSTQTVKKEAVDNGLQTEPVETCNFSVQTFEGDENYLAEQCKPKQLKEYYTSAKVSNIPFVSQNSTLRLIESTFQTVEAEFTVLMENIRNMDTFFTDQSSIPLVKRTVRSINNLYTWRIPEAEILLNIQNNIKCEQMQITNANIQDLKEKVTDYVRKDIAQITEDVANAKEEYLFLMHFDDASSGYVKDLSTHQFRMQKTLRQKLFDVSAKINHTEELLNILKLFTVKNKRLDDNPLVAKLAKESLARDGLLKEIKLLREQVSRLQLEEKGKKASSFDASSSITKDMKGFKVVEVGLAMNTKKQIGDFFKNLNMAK

Kd: 1800 nM
B1: Gle1 (natural protein, UniProt Q12315 1-538, looked up)
chain: MRFVFDEVFNSDTDSPEFEETCSTTSSTSSQCPTPEPSPAIKLPSFTKVGTKKLVNESVVILDPALENALRDLNLQSKLIPINEPIVAASSIIVPHSTNMPLPRASHSSLLDNAKNSNATAPLLEAIEESFQRKMQNLVLANQKEIQSIRENKRRVEEQRKRKEEEERKRKEAEEKAKREQELLRQKKDEEERKRKEAEAKLAQQKQEEERKKIEEQNEKERQLKKEHEAKLLQQKDKLGKAVTNFDKISKMFWHYKDKIAQIKQDIVLPIKKADVNVRNLLSRHKRKINPKFGQLTNSNQQLFKIQNELTQLINDTKGDSLAYHWILNFIAKAVVHQAETEVRVKPESALPLGKLTLYLLVQFPELQELFMARLVKKCPFVIGFTCEIDTEKGRQNMGWKRNNENKWEDNTSYDERMGGILSLFAIITRLQLPQEFITTTSHPFPIALSWHILARICNTPLNLITNTHFVILGSWWDAAAVQFLQAYGNQASKLLILIGEELTSRMAEKKYVGAARLRILLEAWQNNNMESFPEMSP
